These results are taken from patent CN106699884A (ZONHON BIOPHARMA INST INC; GENSUN INST BIOMEDICINE CO LTD, dated 2017).

The target of this assay is T1, 人C-反应蛋白 (human C-reactive protein, extracted from human plasma, HyTest) (human, UniProt P02741 19-224).
T1 construct: mature; Native protein from plasma; In the Western blot it was run on both non-denaturing and SDS gels; also called CRP; 天然CRP
T1 sequence (looked up): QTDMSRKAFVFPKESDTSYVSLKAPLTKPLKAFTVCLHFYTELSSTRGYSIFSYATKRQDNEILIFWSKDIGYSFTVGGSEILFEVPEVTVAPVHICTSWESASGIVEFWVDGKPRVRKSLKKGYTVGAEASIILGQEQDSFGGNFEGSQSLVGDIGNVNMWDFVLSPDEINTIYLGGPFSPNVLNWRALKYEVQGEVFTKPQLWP
Put plainly: Western blot, HRP-labelled scFv on native CRP from non-denaturing and SDS-PAGE gels. A general note: A western blot detects proteins with antibodies after separation by electrophoresis.

B1: 单链抗体P20 (anti-human C-reactive protein scFv P20) (scFv)
scFv: EVMLVESGGGLVKPGGSLKLSCAASGFTFSSYAMSWVRQTPERRLEWVATISTSGSDRYYPDSVKWRFTISRDSAKNILYLQMSSLRSEDTAMYYCARRGWDYWGQGTSVTVSAGGGGSGGGGSGGGGSDVVMTQTPLSLPVSLGDQASISCRSSQSLVHSNGNTYLHWYLQKSGQSPKLLLYKVSNRFSGVSDRFSGSGSGTDFTLKISRVEAEDLGVYFCSQNTHVPPTFGGGTKLEIKR
notes: Recombinant scFv made in E. coli BL21(DE3) and purified on HisTrap HP; It was HRP-labelled (P20-HRP) in the Western blot and was the coating antibody on nitrocellulose in the colloidal gold card; also called P20-scFv-(HIS)6; P20-HRP
As to B1, the binding result was “binds”.
